The supplement of paper PMC11811203

B1: THAP1; numbered along this chain (parent)
chain: MVQSCSAYGCKNRYDKDKPVSFHKFPLTRPSLCKEWEAAVRRKNFKPTKYSSICSEHFTPDCFKRECNNKLLKENAVPTIFLCTEPHDKKEDLLEPQEQLPPPPLPPPVSQVDAAIGLLMPPLQTPVNLSVFCDHNYTVEDTMHQRKRIHQLEQQVEKLRKKLKTAQQRCRRQERQLEKLKEVVHFQKEKDDVSERGYVILPNDYFEIVEVPA

Variants of: B1
Test: THAP1 transcriptional activity (GFP+/GFP- enrichment relative to wild-type constructs) (ratio to WT); higher = more THAP1 activity (PSMB5 reporter activation)
Conditions: with PSMB5 promoter-GFP reporter
Method: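 Deep mutational scan of human THAP1. Site-saturation single amino acid variant library (residues 2-213) was expressed by lentivirus at MOI ~0.3 in THAP1-knockout HEK-293T cells carrying an endogenous PSMB5 promoter-GFP knock-in reporter. Five days post-transduction, BFP+ cells were FACS-sorted into GFP dim and GFP bright populations and variants were counted by Illumina sequencing. Activity is the GFP-bright/GFP-dim read fold change, mean of 2 replicates, divided by the mean fold change of wild-type (synonymous) constructs in the same screen pool; WT = 1.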

Variant | THAP1 transcriptional activity
K147E | 0.626
N44E | 0.348
V131L | 0.533
K73W | 0.212
K73R | 0.622
N136Y | 0.187
N128M | 0.264
N128R | 0.823
Q97A | 0.83
V109N | 2.02
V109Y | 0.304
V109Q | 1.24
D192C | 0.816
I200E | 0.762
K158D | 0.831
E207H | 0.501
E207C | 1.11
N68L | 0.131
K11R | 0.771
N75Q | 0.684
N75W | 0.844
E178D | 0.665
E178S | 1.45
P106R | 1.58

Variant | THAP1 transcriptional activity
P106L | 0.994
P106F | 0.72
E210I | 1.23
R175A | 0.506
R175P | 0.102
R175Q | 0.653
P121A | 1.18
V211P | 0.462
V211F | 1.01
E91I | 0.999
E91L | 0.546
V127M | 0.396
K70N | 0.476
D15T | 0.679
D15H | 0.997
L201C | 1.03
L201H | 0.804
L201Q | 0.653
F81D | 0.125
Y50T | 0.13
Y50E | 0.108
K24L | 0.156
D92E | 1.44
D92I | 2.59

Variant | THAP1 transcriptional activity
L93F | 0.989
L93S | 0.575
L93P | 1.58
L94A | 1.59
L94V | 1.47
L94S | 1.71
I149W | 0.164
C133I | 1.29
C133W | 2.31
C133M | 0.928
C133G | 0.883
E157Q | 0.766
E157L | 0.434
E157S | 1.39
I116G | 1.82
D134V | 0.123
T125A | 1.2
T125P | 0.865
R148G | 0.324
R148C | 0.26
R148L | 0.312
Y137S | 0.137
Y137V | 0.0934
Y198V | 1.01

Variant | THAP1 transcriptional activity
Y198T | 1.13
Y198W | 0.672
R160Y | 0.263
P126K | 0.562
H135A | 0.145
H135C | 0.22
L129T | 1.05
H150Q | 1.21
H150I | 0.713
L119W | 0.533
L119P | 1.08
L119I | 1.11
F45V | 0.0786
F45A | 0.0632
P26G | 0.0891
P26V | 0.127
P26S | 0.0994
R42Y | 0.103
L71K | 0.533
L71G | 0.187
L71V | 1.47
D61P | 0.104
D61S | 0.312
E85A | 0.937

Variant | THAP1 transcriptional activity
F25H | 0.115
P107S | 1.14
Q154V | 0.661
C62F | 0.151
K16G | 0.17
A213E | 0.81
A213N | 1.27
A213Y | 0.711
A213K | 1.13
A213Q | 1.25
L163G | 0.179
K181N | 0.511
V199W | 0.95
K162D | 0.27
G197E | 1
G197K | 1.33
E35V | 0.479
E35A | 0.556
E35K | 0.751
E35F | 0.223
S6K | 0.122
L118W | 0.319
L118C | 0.498
L118D | 0.991

Variant | THAP1 transcriptional activity
V139F | 0.996
P101R | 1.3
P101A | 1.1
R196Q | 1.73
P96I | 0.683
N69F | 0.109
P78T | 0.283
K49G | 0.123
V184F | 0.913
V184A | 1.55
V184H | 0.994
Q111D | 1.06
Q111I | 0.508
Y205K | 0.717
D191A | 1.23
P202N | 0.854
P202T | 0.839
P202W | 0.577
E153T | 0.774
E153I | 0.393
Q124M | 0.487
Q124I | 0.516
Q124R | 0.787
L82K | 0.792

Variant | THAP1 transcriptional activity
R29H | 0.211
R29F | 0.154
R29G | 0.131
F63Y | 0.623
F63S | 0.0787
T79M | 0.254
C33Q | 0.193
C33N | 0.177
K89M | 0.476
K89T | 1.3
Y8I | 0.484
E140F | 1.16
E140H | 0.784
E140D | 0.727
A39L | 0.253
A39G | 0.131
A39Y | 0.413
A39F | 0.283
R172H | 0.458
H57N | 0.0635
H57P | 0.0956
T48Y | 0.0779
H185W | 0.528
H185T | 1.07

Variant | THAP1 transcriptional activity
T59E | 1.07
T59Q | 0.605
T59K | 0.423
T59Y | 0.0936
T59W | 0.0856
D204R | 0.547
D204T | 1.04
Q176D | 0.41
K46Q | 0.581
P212G | 0.939
A76L | 0.476
A76N | 0.121
A76M | 0.215
P30D | 0.254
P30I | 0.278
L152E | 0.227
L152I | 0.29
W36Y | 0.178
W36K | 0.123
W36R | 0.107
W36C | 0.248
W36I | 0.0405
W36P | 0.167
W36A | 0.0783

Variant | THAP1 transcriptional activity
A7L | 0.156
A7N | 0.133
A7I | 0.165
Q99I | 1.32
R146P | 0.535
R146A | 0.79
P104C | 0.986
L72D | 0.169
L72T | 0.0921
L72P | 0.221
L72C | 0.148
L72V | 0.172
K188R | 1.34
K188S | 0.937
C54A | 0.0793
V77W | 0.267
V77Y | 0.279
V77R | 0.539
V77D | 0.295
Q167S | 0.649
Q167A | 0.311
D88L | 1.3
D88K | 1.56
D88W | 0.937

Variant | THAP1 transcriptional activity
D88Y | 0.858
V20C | 0.141
G117H | 0.396
G117F | 0.352
E189F | 0.853
E189N | 0.878
E189Q | 1.11
K179H | 0.616
E174T | 0.836
E174F | 0.564
E174H | 0.817
E66Q | 0.814
E66K | 0.629
V156W | 0.284
I80A | 0.266
E37C | 0.963
Y14M | 0.0755
I53V | 0.447
I53E | 0.101
I53C | 0.164
K164Y | 0.307
K164A | 0.337
K164G | 0.106
K164S | 0.326

Variant | THAP1 transcriptional activity
K164N | 0.306
S21K | 0.0427
S21D | 0.0962
P102N | 1.12
P102W | 1.02
P102S | 1.09
D17G | 0.387
S194Q | 1.42
S194A | 0.876
V112I | 0.587
V112K | 1.74
L105F | 0.955
L105S | 2.43
L105W | 0.491
L105A | 1.61
L105N | 1.92
E195H | 0.381
E195V | 1.02
E195F | 0.67
R41Q | 0.878
V209M | 0.587
L32D | 0.155
L32T | 0.295
L32Y | 0.135

Variant | THAP1 transcriptional activity
P108H | 1.01
P108K | 0.9
L100R | 1.46
Q168G | 0.391
Q168F | 0.256
K18L | 0.367
K18C | 0.238
R65W | 0.212
R65G | 0.424
M143W | 0.719
Q173T | 1.1
L123C | 0.584
L123T | 1.44
C10G | 0.098
C170M | 0.824
C170Q | 0.604
Q187R | 1.03
Q187I | 0.687
F58W | 0.143
F58T | 0.0696
F58D | 0.0836
V2H | 0.247
P19L | 0.412
K90W | 0.775

Variant | THAP1 transcriptional activity
N203A | 1.28
N203Q | 0.904
S55E | 0.127
S55F | 0.084
F132A | 0.892
F132N | 0.635
F132M | 1.06
S51T | 0.421
S51L | 0.111
S51K | 0.121
D113K | 0.918
D113C | 0.573
D113F | 0.135
H87V | 1.56
L177A | 0.268
L177T | 0.255
E56N | 0.344
V40M | 0.853
V40S | 0.14
V40L | 0.867
P86A | 0.874
P86C | 0.542
C5H | 0.127
C5F | 0.125

Variant | THAP1 transcriptional activity
A115M | 0.233
A115N | 0.982
K34I | 0.528
K34E | 0.59
S52W | 0.089
T142M | 0.188
T142E | 1.23
T142R | 0.576
L27A | 0.142
L27S | 0.183
R171H | 0.344
R171S | 0.173
P47S | 0.14
K43M | 0.434
K43C | 0.621
A166C | 1.14
A166N | 0.382
N12Y | 0.149
N12K | 0.125
T138G | 0.526
H23N | 0.0799
H23I | 0.0266
